T1: human sclerostin, mature form (signal peptide removed) (human, UniProt Q9BQB4 24-213)
T1 construct: 190 amino acid glycoprotein with four disulfide bonds (C1-C5, C2-C6, C3-C7, C4-C8); also called SOST; recombinant human sclerostin
T1 sequence: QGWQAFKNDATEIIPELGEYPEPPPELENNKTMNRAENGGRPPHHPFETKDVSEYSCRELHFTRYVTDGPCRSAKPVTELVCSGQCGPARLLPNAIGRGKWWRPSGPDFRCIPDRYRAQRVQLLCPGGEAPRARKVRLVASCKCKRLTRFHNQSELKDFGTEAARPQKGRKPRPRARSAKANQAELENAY

B1: Antibody 4 (antibody, mouse IgG1, kappa, V domains shown)
VH: EVQLQQSGPELMKPGASVKMSCKASGYTFTDYNMHWVKQNQGKTLEWIGEINPNSGGAGYNQKFKGKATLTVDKSSTTAYMELRSLTSEDSAVYYCARLGYDDIYDDWYFDVWGAGTTVTVSS
VL: DIQMTQITSSLSASLGDRVSISCRASQDISNYLNWYQQKPDGTFKLLIFYTSRLLSGVPSRFSGSGSGTDYSLTIYNLEQEDFATYFCQQGDTLPYTFGGGTKLEIKR
notes: Mature LC and HC; Parent of humanized Ab-5; also called Ab-4
B2: Antibody 19 (antibody, V domains shown)
VH: EVQLQQSGPELVKPGASVKMSCKASGFTFTDYIMHWVKQKPGQGLEWIGYINPYNDDTEYNEKFKGKATLTSDKSSSTAYMDLSSLTSEGSAVYYCARSIYYYDAPFAYWGQGTLVTVSS
VL: DIQMTQTTSSLSASLGDRVNISCRASQDISSYLNWYQQKPDGTVKLLIYSTSRLNSGVPSRFSGSGSGTDYSLTISNLAQEDIATYFCQQDIKHPTFGGGTKLELKR
notes: the signal peptide is not part of the antibody as tested; Parent of humanized Ab-20 and Ab-23; also called Ab-19
B3: Antibody 3 (antibody, mouse IgG1, kappa)
light: EIVLTQSPALMAASPGEKVTITCSVSSTISSNHLHWFQQKSDTSPKPWIYGTSNLASGVPVRFSGSGSGTSYSLTISSMEAEDAATYYCQQWSSYPLTFGAGTKLELRRADAAPTVSIFPPSSEQLTSGGASVVCFLNNFYPKDINVKWKIDGSERQNGVLNSWTDQDSKDSTYSMSSTLTLTKDEYERHNSYTCEATHKTSTSPIVKSFNRNEC
heavy: EVQLQQSGAELVRPGALVKLSCTASDFNIKDFYLHWMRQRPEQGLDWIGRIDPENGDTLYDPKFQDKATLTTDTSSNTAYLQLSGLTSETTAVYYCSREADYFHDGTSYWYFDVWGAGTTITVSSAKTTPPSVYPLAPGSAAQTNSMVTLGCLVKGYFPEPVTVTWNSGSLSSGVHTFPAVLQSDLYTLSSSVTVPSSTWPSETVTCNVAHPASSTKVDKKIVPRDCGCKPCICTVPEVSSVFIFPPKPKDVLTITLTPKVTCVVVDISKDDPEVQFSWFVDDVEVHTAQTQPREEQFNSTFRSVSELPIMHQDWLNGKEFKCRVNSAAFPAPIEKTISKTKGRPKAPQVYTIPPPKEQMAKDKVSLTCMITDFFPEDITVEWQWNGQPAENYKNTQPIMDTDGSYFIYSKLNVQKSNWEAGNTFTCSVLHEGLHNHHTEKSLSHSPGK
notes: Mature LC and HC (signal peptide removed); Parent of humanized Ab-15; also called Ab-3
B4: Antibody 13 (antibody, mouse IgG1, kappa, V domains shown)
VH: EVQLQQSGPELVKPGASVKMSCKASGYTFTDYYMNWVKQSHGESLEWIGDINPYNDDTTYNHKFKGKATLTVDKSSNTAYMQLNSLTSEDSAVYYCARETAVITTNAMDYWGQGTSVTVSS
VL: QIVLTQSPAIMSASPGEKVTMTCRASSSVTSSYLNWYQQKPGSSPKLWIYSTSNLASGVPARFSGSGSGTSYSLTISSVEAEDAATYYCQQYDFFPSTFGGGTKLEIKR
notes: Mature LC and HC; Parent of humanized Ab-14; also called Ab-13
B5: Antibody 5 (antibody, human IgG2, kappa, V domains shown)
VH: EVQLVQSGAEVKKPGASVKVSCKASGYTFTDYNMHWVRQAPGQGLEWMGEINPNSGGAGYNQKFKGRVTMTTDTSTSTAYMELRSLRSDDTAVYYCARLGYDDIYDDWYFDVWGQGTTVTVSS
VL: DIQMTQSPSSLSASVGDRVTITCRASQDISNYLNWYQQKPGKAPKLLIYYTSRLLSGVPSRFSGSGSGTDFTLTISSLQPEDFATYYCQQGDTLPYTFGGGTKVEIKR
notes: Humanized Ab-4; Mature LC and HC; also called Ab-5
B6: Antibody 14 (antibody, human IgG2, kappa, V domains shown)
VH: EVQLVQSGAEVKKPGASVKVSCKASGYTFTDYYMNWVRQAPGQRLEWMGDINPYNDDTTYNHKFKGRVTITRDTSASTAYMELSSLRSEDTAVYYCARETAVITTNAMDYWGQGTTVTVSS
VL: DIQLTQSPSFLSASVGDRVTITCRASSSVTSSYLNWYQQKPGKAPKLLIYSTSNLASGVPSRFSGSGSGTEFTLTISSLQPEDFATYYCQQYDFFPSTFGGGTKVEIKR
notes: Humanized Ab-13; Mature LC and HC; also called Ab-14; Ab14
B7: Antibody 23 (antibody, human IgG2, kappa)
light: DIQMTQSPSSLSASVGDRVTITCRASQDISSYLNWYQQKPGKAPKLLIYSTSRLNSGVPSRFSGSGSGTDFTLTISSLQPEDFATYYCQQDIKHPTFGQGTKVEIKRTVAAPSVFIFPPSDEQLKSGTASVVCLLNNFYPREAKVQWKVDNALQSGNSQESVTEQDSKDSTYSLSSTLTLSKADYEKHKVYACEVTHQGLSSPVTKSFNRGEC
heavy: EVQLVQSGAEVKKPGSSVKVSCKASGFTFTDYIMHWVRQAPGQGLEWMGYINPYNDDTEYNEKFKGRVTITADKSTSTAYMELSSLRSEDTAVYYCARSIYYYDAPFAYWGQGTLVTVSSASTKGPSVFPLAPCSRSTSESTAALGCLVKDYFPEPVTVSWNSGALTSGVHTFPAVLQSSGLYSLSSVVTVPSSNFGTQTYTCNVDHKPSNTKVDKTVERKCCVECPPCPAPPVAGPSVFLFPPKPKDTLMISRTPEVTCVVVDVSHEDPEVQFNWYVDGVEVHNAKTKPREEQFNSTFRVVSVLTVVHQDWLNGKEYKCKVSNKGLPAPIEKTISKTKGQPREPQVYTLPPSREEMTKNQVSLTCLVKGFYPSDIAVEWESNGQPENNYKTTPPMLDSDGSFFLYSKLTVDKSRWQQGNVFSCSVMHEALHNHYTQKSLSLSPGK
notes: Humanized Ab-19, IgG2 version; Mature LC and HC; also called Ab-23

Legend:
[1] = biological target: T1, human sclerostin, mature form (signal …); assay: Biacore cross-blocking, human sclerostin on CM5 chip; mixed with competitor Ab-13, each 1.3 uM binding sites
Description: (§1) Human sclerostin was coupled to a CM5 Biacore chip using standard amine coupling chemistry to generate a sclerostin coated surface. 300 resonance units of sclerostin were coupled to the surface.
(§2) The antibodies to be tested were diluted to a concentration of 200 ug/ml in HBS-EP buffer (being 10 mM HEPES pH 7.4, 150 mM NaCl, 3 mM EDTA, 0.005% (v/v) Surfactant P20) and then mixed in a one to one molar ratio (on a binding site basis) to generate the test mixture. This test mixture thus contained each antibody at a concentration of 100 ug/ml (1.3 um on a binding site basis). Separate solutions containing each of the antibodies in the test mix alone were also prepared. These solutions contained the individual antibodies in HBS-EP buffer at a concentration of 100 ug/ml (1.3 um on a binding site basis).
(§3) 20 μL of the test mixture was passed over the sclerostin-coated chip at a flow rate of 10 μL/min and the amount of binding recorded. The chip was then treated with two 60 second pulses of 30 mM HCl to remove all of the bound antibody. A solution containing only one of the antibodies of the test mixture (at 1.3 μM in the same buffer as the test mixture on a binding site basis) was then passed over the chip in the same manner as the test mixture and the amount of binding recorded. The chip was again treated to remove all of the bound antibody and finally a solution containing the other antibody from the test mixture alone (at 1.3 μM in the same buffer as the test mixture on a binding site basis) was passed over the chip and the amount of binding recorded.

[2] = biological target: T1, human sclerostin, mature form (signal …); assay: Biacore cross-blocking on human sclerostin; mixture with competitor Ab-19, mean RU against the sum of each alone
Description: as §1, §2, §3

[3] = biological target: T1, human sclerostin, mature form (signal …); assay: KinExA solution equilibrium binding, human sclerostin-coated beads
Description: The affinity of several anti-sclerostin antibodies to human sclerostin was assessed by a solution equilibrium binding analysis using KinExA® 3000 (Sapidyne Instruments Inc., Boise, Id.). For these measurements, Reacti-Gel 6× beads (Pierce, Rockford, Ill.) were pre-coated with 40 μg/ml human sclerostin in 50 mM Na2CO3, pH 9.6 at 4° C. overnight. The beads were then blocked with 1 mg/ml BSA in 1M Tris-HCl, pH 7.5 at 4° C. for two hours. 10 pM, 30 pM, or 100 pM of the antibody was mixed with various concentrations of human sclerostin, ranging in concentration from 0.1 pM to 1 nM, and equilibrated at room temperature for over 8 hours in PBS with 0.1 mg/ml BSA and 0.005% P20. The mixtures were then passed over the human sclerostin coated beads. The amount of bead-bound anti-sclerostin antibody was quantified using fluorescent Cy5-labeled goat anti-mouse-IgG or fluorescent Cy5-labeled goat anti-human-IgG antibodies (Jackson Immuno Research, West Grove, Pa.) for the mouse or human antibody samples, respectively. The amount of fluorescent signal measured was proportional to the concentration of free anti-sclerostin antibody in each reaction mixture at equilibrium. The dissociation equilibrium constant (KD) was obtained from nonlinear regression of the competition curves using a n-curve one-site homogeneous binding model provided in the KinExA Pro software.

[4] = biological target: T1, human sclerostin, mature form (signal …); assay: Biacore cross-blocking, human sclerostin on CM5 chip; mixed with competitor Ab-3, each 1.3 uM binding sites
Description: as §1, §3
(§4) The table below show the results from cross-blocking assays on a range of different antibodies. The values in each square of the table represent the amount of binding (in RU) seen when the antibodies (at 1.3 μM on a binding site basis) or buffer indicated in the top row of the table were mixed with the antibodies (at 1.3 uM on a binding site basis) or buffer indicated in the first column of the table.

[5] = biological target: T1, human sclerostin, mature form (signal …); assay: Biacore cross-blocking on human sclerostin; mixture with competitor Ab-3, mean RU against the sum of each alone
Description: as §1, §2, §3

[6] = biological target: T1, human sclerostin, mature form (signal …); assay: Biacore cross-blocking, human sclerostin on CM5 chip; mixed with competitor Ab-19, each 1.3 uM binding sites
Description: as §1, §2, §3

[7] = biological target: T1, human sclerostin, mature form (signal …); assay: Biacore cross-blocking, human sclerostin on CM5 chip; mixed with competitor Ab-A, each 1.3 uM binding sites
Description: as §1, §3, §4

[8] = biological target: T1, human sclerostin, mature form (signal …); assay: Biacore cross-blocking, human sclerostin on CM5 chip; mixed with competitor Ab-4, each 1.3 uM binding sites
Description: as §1, §3, §4

[9] = biological target: T1, human sclerostin, mature form (signal …); assay: Biacore 3000; antibody captured by anti-human IgG Fc, sclerostin as analyte
Description: The assay format was capture of the anti-sclerostin antibody by immobilised anti-human IgG-Fc then titration of the sclerostin over the captured surface. An example of the procedure is given below: BIA (Biamolecular Interaction Analysis) was performed using a BIAcore 3000 (BIAcore AB). Affinipure F(ab′)₂ Fragment goat anti-human IgG, Fc fragment specific (Jackson
ImmunoResearch) was immobilised on a CM5 Sensor Chip via amine coupling chemistry to a capture level of ≈4000 response units (RUs). HBS-EP buffer (10 mM HEPES pH 7.4, 0.15 M NaCl, 3 mM EDTA, 0.005% Surfactant P20, BIAcore AB) containing 1 mg/mL CM-Dextran was used as the running buffer with a flow rate of 10 μl/min. A 10 μl injection of the anti-sclerostin antibody at ˜5 μg/mL was used for capture by the immobilised anti-human IgG-Fc. Antibody capture levels were typically 100-200 RU. Sclerostin was titrated over the captured anti-sclerostin antibody at various concentrations at a flow rate of 30 μL/min. The surface was regenerated by two 10 μL injections of 40 mM HCl, followed by a 5 μL injection of 5 mM NaOH at a flowrate of 10 μL/min.
Background subtraction binding curves were analysed using the BIAevaluation software (version 3.2) following standard procedures. Kinetic parameters were determined from the fitting algorithm.

amount of binding (RU) [1] [RU]	percentage of the theoretical binding [2] [%]	Kd [3] [pM]	amount of binding (RU) [4] [RU]	percentage of the theoretical binding [5] [%]	amount of binding (RU) [6] [RU]	amount of binding (RU) [7] [RU]	amount of binding (RU) [8] [RU]	Kd [9] [pM]	koff [9] [s⁻¹]	kon [9] [M⁻¹ s⁻¹]	Binder
1020	60.8	3	869	85.4	822	860	–	–	–	–	B1
1020	–	3	892	–	–	863	789	–	–	–	B2
428	94.4	–	–	–	896	952	845	–	–	–	B3
–	97	0.6	432	58	1040	1110	1010	–	–	–	B4
–	–	6	–	–	–	–	–	97.8	0.000174	1.78e+06	B5
–	–	1	–	–	–	–	–	1.48	4.87e-06	3.3e+06	B6
–	–	4	–	–	–	–	–	–	–	–	B7

Reference: patent US20140248666A1 (Amgen, published 2014)
